The supplement of paper PMC7877785
± gives the uncertainty stated by the source.

Experiment: self-splicing fitness, log relative to wild type (ln ratio); higher = more splicing; Tetrahymena group I intron in knt gene, E. coli kanamycin selection, DiMSum; sequences stand for … in CUCUCU…GGAGGGAAAAGUUAUCAGGCAUGCACCUGGUAGCUAGUCUUUAAACCAAUAGAUUGCAUCGGUUUAAAAGGCAAGACCGUCAAAUUGCGGGAAAGGGGUCAACAGCCGUUCAGUACCAAGUCUCAGGGGAAACUUUGAGAUGGCCUUGCAAAGGGUAUGGUAAUAAGCUGACGGACAUGGUCCUAACCACGCAGCCAAGUCCUAAGUCAACAGAUCUUCUGUUGAUAUGGAUGCAGUUCACAGACUAAAUGUCGGUCGGGGAAGAUGUAUUCUUCUCAUAAGAUAUAGUCGGACCUCUCCUUAAUGGGAGCUAGCGGAUGAAGUGAUGCAACACUGGAGCCGCUGGGAACUAAUUUGUAUGCGAAAGUAUAUUGAUUAGUUUUGGAGUACUCGUGGUCG
Method in brief: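 DiMSum derived fitness as the error-weighted combination of fold changes across replicates, kanamycin versus no kanamycin, normalised to wild type. E. coli BL21(DE3) held the library, which randomised all eight P1ex-region intron nucleotides within the knt kanamycin-resistance gene on pET-22b(+). Six replicate transformations grew overnight at 37°C or 30°C on LB agar with or without 25 μg/mL kanamycin, also containing 100 μg/mL carbenicillin, 50 μM IPTG and 0.2% rhamnose, and pooled colonies were amplicon-sequenced on an Illumina HiSeq 2500.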

Sequence | self-splicing fitness (ln) (30 °C) | self-splicing fitness (ln) (37 °C)
CUUUAGCAAUAUUACGUUGC | -3.08 ± 0.28 | -3.55 ± 0.39
GAAAAGCAAUAUUACGAAAU | -1.74 ± 0.14 | -1.09 ± 0.16
GAAAAGCAAUAUUACGACCC | 0.23 ± 0.13 | -0.182 ± 0.18
GAAAAGCAAUAUUACGAUAU | -1.15 ± 0.071 | -0.354 ± 0.093
GAAAAGCAAUAUUACGAUUA | -0.531 ± 0.07 | -0.0202 ± 0.076
GAAAAGCAAUAUUACGAUUG | -2.27 ± 0.13 | -1.52 ± 0.14
GAAAAGCAAUAUUACGCGUA | -1.27 ± 0.11 | -1.15 ± 0.11
GAAAAGCAAUAUUACGCGUG | -1.42 ± 0.065 | -0.104 ± 0.078
GAAAAGCAAUAUUACGCUUG | -1.72 ± 0.13 | -0.918 ± 0.14
GAAAAGCAAUAUUACGGCCA | -1.03 ± 0.16 | 0.81 ± 0.21
GAAAAGCAAUAUUACGGCCU | -0.569 ± 0.12 | 0.296 ± 0.14
GAAAAGCAAUAUUACGGUAG | -3.24 ± 0.18 | -1.53 ± 0.13
GAAAAGCAAUAUUACGGUGA | -1.48 ± 0.07 | -1.07 ± 0.075
GAAAAGCAAUAUUACGUAAA | -2.4 ± 0.13 | -0.992 ± 0.14
GAAAAGCAAUAUUACGUAGG | -3.87 ± 0.14 | -1.96 ± 0.11
GAAAAGCAAUAUUACGUGAG | -1.53 ± 0.068 | -1.47 ± 0.11
GAACAGCAAUAUUACGAAUU | -1.15 ± 0.088 | -0.293 ± 0.1
GAACAGCAAUAUUACGAGCC | -1.57 ± 0.14 | -1.09 ± 0.22
GAACAGCAAUAUUACGAGGC | -3.07 ± 0.18 | -2.03 ± 0.14
GAACAGCAAUAUUACGAGUU | -2.29 ± 0.092 | -0.935 ± 0.1
GAACAGCAAUAUUACGAUAA | -0.728 ± 0.076 | -0.326 ± 0.092
GAACAGCAAUAUUACGAUAC | -0.825 ± 0.065 | -0.127 ± 0.087
GAACAGCAAUAUUACGAUGC | -0.47 ± 0.079 | 0.126 ± 0.12
GAACAGCAAUAUUACGCAAA | -1.37 ± 0.12 | -0.529 ± 0.11

Sequence | self-splicing fitness (ln) (30 °C) | self-splicing fitness (ln) (37 °C)
GAACAGCAAUAUUACGCGUG | -0.931 ± 0.053 | -0.34 ± 0.059
GAACAGCAAUAUUACGCUAA | -1.13 ± 0.062 | -0.958 ± 0.075
GAACAGCAAUAUUACGCUCA | -1.23 ± 0.073 | 0.207 ± 0.1
GAACAGCAAUAUUACGCUCC | -3.43 ± 0.36 | -2.34 ± 0.43
GAACAGCAAUAUUACGCUUG | -0.92 ± 0.072 | -0.731 ± 0.087
GAACAGCAAUAUUACGGAUG | -2.79 ± 0.16 | -2.29 ± 0.14
GAACAGCAAUAUUACGGCCA | -0.58 ± 0.18 | -0.441 ± 0.22
GAACAGCAAUAUUACGGCUC | -0.329 ± 0.1 | -0.256 ± 0.1
GAACAGCAAUAUUACGGGCC | -2.22 ± 0.14 | -1.09 ± 0.17
GAACAGCAAUAUUACGUAGA | -0.427 ± 0.049 | -0.162 ± 0.069
GAACAGCAAUAUUACGUAUC | -2.83 ± 0.1 | -1.39 ± 0.12
GAACAGCAAUAUUACGUCAA | -1.14 ± 0.057 | -0.166 ± 0.06
GAACAGCAAUAUUACGUGCC | -2.58 ± 0.14 | -0.859 ± 0.12
GAACAGCAAUAUUACGUGGC | -3.03 ± 0.17 | -2.6 ± 0.18
GAACAGCAAUAUUACGUGGU | -3.12 ± 0.11 | -1.89 ± 0.09
GAACAGCAAUAUUACGUGUA | -1.58 ± 0.062 | -0.438 ± 0.069
GAACAGCAAUAUUACGUUGA | -1.47 ± 0.066 | -1.02 ± 0.077
GAAGAGCAAUAUUACGAAGG | -2.75 ± 0.17 | -3.62 ± 0.46
GAAGAGCAAUAUUACGAUGU | -2.54 ± 0.2 | -1.39 ± 0.15
GAAGAGCAAUAUUACGAUUG | -2.53 ± 0.29 | -2.4 ± 0.39
GAAGAGCAAUAUUACGCCCC | -1.93 ± 0.17 | -0.902 ± 0.18
GAAGAGCAAUAUUACGCGGG | -3.24 ± 0.28 | -2.65 ± 0.41
GAAGAGCAAUAUUACGCGUU | -3.69 ± 0.33 | -3.12 ± 0.28
GAAGAGCAAUAUUACGCUAU | -2.39 ± 0.24 | -2.79 ± 0.48

Sequence | self-splicing fitness (ln) (30 °C) | self-splicing fitness (ln) (37 °C)
GAAGAGCAAUAUUACGCUCC | -2.52 ± 0.24 | –
GAAGAGCAAUAUUACGCUUA | -3.49 ± 0.33 | -1.3 ± 0.23
GAAGAGCAAUAUUACGGAGU | -3.07 ± 0.46 | -2.47 ± 0.45
GAAGAGCAAUAUUACGGGCG | -3.54 ± 0.37 | -2.84 ± 0.35
GAAGAGCAAUAUUACGGUGC | – | -2.41 ± 0.21
GAAGAGCAAUAUUACGGUUC | -3.53 ± 0.29 | -1.46 ± 0.22
GAAGAGCAAUAUUACGUCAG | -3.58 ± 0.2 | -3.03 ± 0.35
GAAGAGCAAUAUUACGUGCA | -2.38 ± 0.18 | -1.24 ± 0.2
GAAGAGCAAUAUUACGUGUC | -4.75 ± 0.46 | -2.79 ± 0.27
GAAGAGCAAUAUUACGUGUU | -4.18 ± 0.23 | -2.12 ± 0.18
GAAGAGCAAUAUUACGUUAC | -2.82 ± 0.17 | -2.7 ± 0.2
GAAUAGCAAUAUUACGAAAA | -1.52 ± 0.22 | -1.02 ± 0.2
GAAUAGCAAUAUUACGAAAG | -3.86 ± 0.41 | -2.55 ± 0.27
GAAUAGCAAUAUUACGAAUA | -1.07 ± 0.17 | -1.57 ± 0.22
GAAUAGCAAUAUUACGACGA | -0.436 ± 0.36 | 0.000314 ± 0.24
GAAUAGCAAUAUUACGAGCA | -1.94 ± 0.23 | -0.431 ± 0.14
GAAUAGCAAUAUUACGAGUG | -2.01 ± 0.076 | -2.34 ± 0.13
GAAUAGCAAUAUUACGCACU | -0.269 ± 0.089 | 0.18 ± 0.11
GAAUAGCAAUAUUACGCAUA | -2.62 ± 0.29 | -1.08 ± 0.17
GAAUAGCAAUAUUACGCCCC | -0.0149 ± 0.39 | -0.245 ± 0.42
GAAUAGCAAUAUUACGCCGC | – | -1.45 ± 0.43
GAAUAGCAAUAUUACGCGAC | -1.89 ± 0.2 | 0.34 ± 0.18
GAAUAGCAAUAUUACGCGCC | -1.29 ± 0.24 | -1.32 ± 0.29
GAAUAGCAAUAUUACGCGGA | -1.54 ± 0.15 | -1.43 ± 0.15

Sequence | self-splicing fitness (ln) (30 °C) | self-splicing fitness (ln) (37 °C)
GAAUAGCAAUAUUACGCUGG | -2.17 ± 0.33 | -0.278 ± 0.24
GAAUAGCAAUAUUACGCUGU | -3.12 ± 0.21 | -2.1 ± 0.15
GAAUAGCAAUAUUACGCUUC | – | -1.83 ± 0.44
GAAUAGCAAUAUUACGGAUU | -0.925 ± 0.053 | -0.4 ± 0.07
GAAUAGCAAUAUUACGGCAC | -0.0381 ± 0.12 | -0.000648 ± 0.15
GAAUAGCAAUAUUACGGCCA | -0.596 ± 0.1 | -0.0233 ± 0.13
GAAUAGCAAUAUUACGGGCU | -2.85 ± 0.16 | -1.19 ± 0.13
GAAUAGCAAUAUUACGGGGG | -2.93 ± 0.26 | -1.87 ± 0.25
GAAUAGCAAUAUUACGUACG | -1.38 ± 0.12 | -1.45 ± 0.14
GAAUAGCAAUAUUACGUAUC | -1.7 ± 0.13 | -1.75 ± 0.2
GAAUAGCAAUAUUACGUAUU | -2.18 ± 0.15 | -1.45 ± 0.14
GAAUAGCAAUAUUACGUCAC | -2.47 ± 0.17 | -1.31 ± 0.17
GAAUAGCAAUAUUACGUGAA | -1.74 ± 0.092 | -0.782 ± 0.11
GAAUAGCAAUAUUACGUGAG | -1.19 ± 0.057 | -0.737 ± 0.1
GACAAGCAAUAUUACGAACA | -1.52 ± 0.13 | -0.000414 ± 0.11
GACAAGCAAUAUUACGAACU | -0.214 ± 0.066 | 0.284 ± 0.092
GACAAGCAAUAUUACGACAC | -0.384 ± 0.071 | 0.0329 ± 0.11
GACAAGCAAUAUUACGAUCU | -0.884 ± 0.079 | -0.309 ± 0.097
GACAAGCAAUAUUACGCCAC | – | -2.64 ± 0.5
GACAAGCAAUAUUACGCCCG | -1.26 ± 0.17 | -0.702 ± 0.37
GACAAGCAAUAUUACGCUGA | -2.53 ± 0.13 | -1.55 ± 0.11
GACAAGCAAUAUUACGCUUA | -1.52 ± 0.098 | -0.863 ± 0.1
GACAAGCAAUAUUACGGACU | -1.17 ± 0.075 | 0.137 ± 0.087
GACAAGCAAUAUUACGGAUA | -1.52 ± 0.12 | -1.47 ± 0.12
